Patent US11419837B2, “Modified release orally administered amino acid formulations” (APR APPLIED PHARMA RESEARCH S.A., priority 2015, dated 2022)

How the values were obtained:
[1] = In vivo bioavailability in pig: mean aggregate plasma concentrations of 14 amino acids; conditions: pigs, oral by gavage; for AUC 0-last / Cmax: 0.8 g of amino acid/kg body weight
Experimental: The following formulations were tested: • APR-04 (bkT037/72-4) • APR-07 (bkT037/73-7) • Free amino acid (bkT037/71) • Casein In Vivo Study Design: • Subjects: 8 pigs • Design: 4 formulations in crossover • Administration route and method: oral, by gavage. The product dose was administered to each animal mixed with a small amount of water (300 ml) in order to ensure fast (≤5 minutes) assumption. The total amount of the product was administered using syringes. The animals were fasted for 13.5±0.5 hours before the treatment and the access to water was suspended one hour before and one hour after the treatment. • Dose, frequency and duration of administration: The amount of product administered was based on body-weight and equaled 0.8 g of amino acid/kg body weight for each test product. The products were administered by a single administration in the morning of each day of treatment. • Wash out: 48-72 hours • Blood sampling: 0.75 h before Treatment (T), 0.5 h before T, 0.25 h before T, 0.25 h after T, 0.5 h after T, 0.75 h after T, 1 h after T, 1.25 h after T, 1.5 h after T, 2 h after T, 2.5 h after T, 3 h after T, 4 h after T, 5 h after T • Analysis: The plasma concentrations of 14 amino acids (Alanine, Arginine, Glutamine, Glycine, Histidine, Isoleucine, Leucine, Lysine, Proline, Serine, Threonine, Tryptophan, Tyrosine, Valine) were measured and analyzed. Methionine and Aspartic acid were excluded from the analysis due to stability issues. The following parameters were evaluated: Area Under the concentration/time Curve (AUC0-last), peak concentration (Cmax), time to peak concentration (Tmax) and Clast. The behavior of the two APR Formulations was compared to the formulation of Free Amino Acids and Casein. Results: […]

[2] = In vivo bioavailability in pig: mean of analyzed essential amino acid plasma concentrations; conditions: ESSENTIAL AA (RAW DATA), pigs, oral by gavage, 0.8 g of amino acid/kg body weight
Experimental: (§1) The following formulations were tested: • APR-04 (bkT037/72-4) • APR-07 (bkT037/73-7) • Free amino acid (bkT037/71) • Casein In Vivo Study Design: • Subjects: 8 pigs • Design: 4 formulations in crossover • Administration route and method: oral, by gavage. The product dose was administered to each animal mixed with a small amount of water (300 ml) in order to ensure fast (≤5 minutes) assumption. The total amount of the product was administered using syringes. The animals were fasted for 13.5±0.5 hours before the treatment and the access to water was suspended one hour before and one hour after the treatment. • Dose, frequency and duration of administration: The amount of product administered was based on body-weight and equaled 0.8 g of amino acid/kg body weight for each test product. The products were administered by a single administration in the morning of each day of treatment. • Wash out: 48-72 hours • Blood sampling: 0.75 h before Treatment (T), 0.5 h before T, 0.25 h before T, 0.25 h after T, 0.5 h after T, 0.75 h after T, 1 h after T, 1.25 h after T, 1.5 h after T, 2 h after T, 2.5 h after T, 3 h after T, 4 h after T, 5 h after T • Analysis: The plasma concentrations of 14 amino acids (Alanine, Arginine, Glutamine, Glycine, Histidine, Isoleucine, Leucine, Lysine, Proline, Serine, Threonine, Tryptophan, Tyrosine, Valine) were measured and analyzed. Methionine and Aspartic acid were excluded from the analysis due to stability issues. The following parameters were evaluated: Area Under the concentration/time Curve (AUC0-last), peak concentration (Cmax), time to peak concentration (Tmax) and Clast. The behavior of the two APR Formulations was compared to the formulation of Free Amino Acids and Casein. Results:
The amino acids aggregated together for analysis were Arginine, Histidine, Isoleucine, Leucine, Threonine, Lysine, Tryptophan and Valine. This subgroup was chosen for analysis because these amino acids cannot be endogenously synthesized. As a result, their concentrations in plasma from sampling the jugular vein may be more representative of the intestinal adsorption of the tested formulations than the non-essential amino acids whose presence in blood could be independently generated by the organism.
The statistical analysis for the date reported in Table 14c (for AUC, Cmax, and Clast: one-way repeated measures ANOVA with post hoc analysis with Bonferroni adjustment; for Tmax: Friedman test followed by multiple sign test for pairwise comparison) is reported in Table 14d.

[3] = In vivo bioavailability in pig: mean of branched chain amino acid (BCAA) plasma concentrations; conditions: BCAA (RAW DATA), pigs, oral by gavage, 0.8 g of amino acid/kg body weight
Experimental: as §1
The amino acids aggregated together for analysis were valine, isoleucine and leucine. This subgroup of essential amino acids was chosen for analysis because these essential amino acids are unique among amino acids in that their first catabolic step cannot occur in the liver. As a consequence, they largely escape first-pass splanchnic metabolism (Brosnan et al).
The statistical analysis for the date reported in Table 14e (for AUC, Cmax, and Clast: one-way repeated measures ANOVA with post hoc analysis with Bonferroni adjustment; for Tmax: Friedman test followed by multiple sign test for pairwise comparison) is reported in Table 14f

[4] = In vivo bioavailability in pig: large neutral amino acid (LNAA) plasma concentrations; conditions: LNAA (RAW DATA), pigs, oral by gavage
Experimental: as §1
The amino acids aggregated together for analysis were tryptophan, threonine, valine, isoleucine, leucine, histidine. […] Phenylalanine was excluded from the analysis because it was not present in the formulations tested. This subgroup of essential amino acids was chosen for analysis because LNAA share with phenylalanine a common transport system in order to enter the brain. High plasma concentration of LNAAs may reduce the uptake into the brain(Van Spronsen et al). might thus bring clinical advantages. In particular, if the analysis on the subgroup show an increased Clast for the APR formulations versus the free amino acid formulations, it can be speculated that the patient may have a sort of “prolonged protection/tolerance” to phenylalanine.

[5] = 14 AA (BC DATA, basal values subtracted)
[6] = 14 AA (RAW DATA, basal values not subtracted)
[7] = tryptophan, threonine, valine, isoleucine, leucine, histidine, 0.8 g of amino acid/kg

Substance: Casein
- AUC 0-last [1, 5]: 258.9
- Cmax [1, 5]: 147 µM
- Clast ([1]; 14 AA (RAW DATA), plasma concentration at the last sampling (5h), 0.8 g of amino acid/kg): 172.9
- AUC 0-last [1, 6]: 1125.6
- Cmax [1, 6]: 325 µM
- Clast ([2]; last sampling (5h)): 153.0
- AUC 0-last [2]: 969.9
- Cmax [2]: 299 µM
- Tmax [2]: 1.16 h
- Clast ([3]; last sampling (5h)): 228.7
- AUC 0-last ([3]; valine, isoleucine and leucine): 1365.3
- Cmax ([3]; valine, isoleucine and leucine): 401 µM
- Tmax ([3]; valine, isoleucine and leucine): 1.16 h
- Clast ([4]; last sampling (5h), 0.8 g of amino acid/kg body weight): 143.0
- AUC 0-last [4, 7]: 868.9
- Cmax [4, 7]: 257 µM
- Tmax [4, 7]: 1.16 h
